Patent US20080219962

Chain of myc-labeled Runx2 (chain, as listed by the source): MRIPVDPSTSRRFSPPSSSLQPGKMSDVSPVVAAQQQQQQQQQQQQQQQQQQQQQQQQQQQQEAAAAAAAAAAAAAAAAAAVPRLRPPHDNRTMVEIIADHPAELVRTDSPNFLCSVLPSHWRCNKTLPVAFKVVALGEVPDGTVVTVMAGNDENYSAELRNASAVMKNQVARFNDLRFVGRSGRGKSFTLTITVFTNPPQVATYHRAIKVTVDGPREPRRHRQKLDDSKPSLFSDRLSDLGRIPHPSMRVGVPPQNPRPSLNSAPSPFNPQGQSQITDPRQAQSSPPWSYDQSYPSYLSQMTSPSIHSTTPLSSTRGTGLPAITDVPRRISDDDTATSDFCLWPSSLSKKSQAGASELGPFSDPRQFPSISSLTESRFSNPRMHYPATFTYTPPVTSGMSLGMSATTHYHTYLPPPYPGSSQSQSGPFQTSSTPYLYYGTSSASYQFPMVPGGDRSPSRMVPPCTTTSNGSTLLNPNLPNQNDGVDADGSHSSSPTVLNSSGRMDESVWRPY
Chain of Smurf1 (Smad ubiquitin regulatory factor 1) (Q9HCE7 whole entry): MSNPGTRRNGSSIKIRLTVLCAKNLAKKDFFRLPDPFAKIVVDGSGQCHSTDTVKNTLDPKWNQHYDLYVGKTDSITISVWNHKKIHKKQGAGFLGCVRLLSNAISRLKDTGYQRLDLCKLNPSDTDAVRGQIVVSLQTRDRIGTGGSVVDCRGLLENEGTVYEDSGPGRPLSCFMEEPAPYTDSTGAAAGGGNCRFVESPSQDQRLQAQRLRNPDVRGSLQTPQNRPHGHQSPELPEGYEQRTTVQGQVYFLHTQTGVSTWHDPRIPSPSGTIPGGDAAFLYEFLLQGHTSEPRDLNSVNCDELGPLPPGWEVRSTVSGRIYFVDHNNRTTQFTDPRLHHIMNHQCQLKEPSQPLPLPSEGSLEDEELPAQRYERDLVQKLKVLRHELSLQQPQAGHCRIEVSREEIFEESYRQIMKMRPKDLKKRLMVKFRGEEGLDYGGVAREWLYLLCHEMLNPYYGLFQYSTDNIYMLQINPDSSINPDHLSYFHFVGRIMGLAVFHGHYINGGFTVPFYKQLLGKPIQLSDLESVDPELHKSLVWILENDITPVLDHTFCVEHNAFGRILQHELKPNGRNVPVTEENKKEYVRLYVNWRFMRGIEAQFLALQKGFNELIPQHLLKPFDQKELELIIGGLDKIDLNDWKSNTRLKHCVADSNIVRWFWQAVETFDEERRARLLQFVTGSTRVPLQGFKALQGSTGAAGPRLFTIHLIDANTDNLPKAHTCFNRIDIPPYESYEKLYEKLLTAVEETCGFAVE
Chain of Runx2-del-415-418 (chain, as listed by the source): as the sequence (chain, as listed by the source) above
Chain of Runx2-P415R (chain, as listed by the source P415R): as the sequence (chain, as listed by the source) above, with P415R counted along it
Chain of myc-labeled HDAC4 (P56524 whole entry): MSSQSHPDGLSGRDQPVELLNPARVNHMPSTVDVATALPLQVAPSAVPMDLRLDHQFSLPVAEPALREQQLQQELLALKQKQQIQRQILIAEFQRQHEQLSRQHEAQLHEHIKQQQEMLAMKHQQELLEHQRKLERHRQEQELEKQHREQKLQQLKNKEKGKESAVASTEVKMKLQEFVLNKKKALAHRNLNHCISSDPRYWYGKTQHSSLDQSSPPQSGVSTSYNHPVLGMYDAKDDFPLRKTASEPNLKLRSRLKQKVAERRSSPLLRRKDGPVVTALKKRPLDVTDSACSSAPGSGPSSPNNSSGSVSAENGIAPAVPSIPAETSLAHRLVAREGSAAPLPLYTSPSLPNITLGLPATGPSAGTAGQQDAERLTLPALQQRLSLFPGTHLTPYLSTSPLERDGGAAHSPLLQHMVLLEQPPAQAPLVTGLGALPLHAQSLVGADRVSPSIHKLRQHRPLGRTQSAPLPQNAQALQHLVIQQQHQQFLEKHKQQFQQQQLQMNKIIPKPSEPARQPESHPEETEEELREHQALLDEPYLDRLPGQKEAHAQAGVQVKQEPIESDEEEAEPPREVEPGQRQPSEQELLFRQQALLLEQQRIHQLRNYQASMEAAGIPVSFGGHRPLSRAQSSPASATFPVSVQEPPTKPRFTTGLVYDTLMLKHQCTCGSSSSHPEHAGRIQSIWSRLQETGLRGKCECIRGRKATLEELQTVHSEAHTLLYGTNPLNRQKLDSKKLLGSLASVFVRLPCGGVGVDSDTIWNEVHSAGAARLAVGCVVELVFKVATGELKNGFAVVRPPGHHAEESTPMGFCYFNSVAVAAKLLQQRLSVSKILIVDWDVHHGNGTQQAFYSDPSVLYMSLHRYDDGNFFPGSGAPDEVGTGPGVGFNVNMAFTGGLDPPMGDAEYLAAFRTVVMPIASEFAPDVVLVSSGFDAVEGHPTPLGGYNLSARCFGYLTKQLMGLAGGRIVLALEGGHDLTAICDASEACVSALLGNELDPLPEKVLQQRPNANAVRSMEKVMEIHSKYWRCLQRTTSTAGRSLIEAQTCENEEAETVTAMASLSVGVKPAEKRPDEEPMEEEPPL
Chain of myc-labeled HDAC5 (Q9UQL6 whole entry): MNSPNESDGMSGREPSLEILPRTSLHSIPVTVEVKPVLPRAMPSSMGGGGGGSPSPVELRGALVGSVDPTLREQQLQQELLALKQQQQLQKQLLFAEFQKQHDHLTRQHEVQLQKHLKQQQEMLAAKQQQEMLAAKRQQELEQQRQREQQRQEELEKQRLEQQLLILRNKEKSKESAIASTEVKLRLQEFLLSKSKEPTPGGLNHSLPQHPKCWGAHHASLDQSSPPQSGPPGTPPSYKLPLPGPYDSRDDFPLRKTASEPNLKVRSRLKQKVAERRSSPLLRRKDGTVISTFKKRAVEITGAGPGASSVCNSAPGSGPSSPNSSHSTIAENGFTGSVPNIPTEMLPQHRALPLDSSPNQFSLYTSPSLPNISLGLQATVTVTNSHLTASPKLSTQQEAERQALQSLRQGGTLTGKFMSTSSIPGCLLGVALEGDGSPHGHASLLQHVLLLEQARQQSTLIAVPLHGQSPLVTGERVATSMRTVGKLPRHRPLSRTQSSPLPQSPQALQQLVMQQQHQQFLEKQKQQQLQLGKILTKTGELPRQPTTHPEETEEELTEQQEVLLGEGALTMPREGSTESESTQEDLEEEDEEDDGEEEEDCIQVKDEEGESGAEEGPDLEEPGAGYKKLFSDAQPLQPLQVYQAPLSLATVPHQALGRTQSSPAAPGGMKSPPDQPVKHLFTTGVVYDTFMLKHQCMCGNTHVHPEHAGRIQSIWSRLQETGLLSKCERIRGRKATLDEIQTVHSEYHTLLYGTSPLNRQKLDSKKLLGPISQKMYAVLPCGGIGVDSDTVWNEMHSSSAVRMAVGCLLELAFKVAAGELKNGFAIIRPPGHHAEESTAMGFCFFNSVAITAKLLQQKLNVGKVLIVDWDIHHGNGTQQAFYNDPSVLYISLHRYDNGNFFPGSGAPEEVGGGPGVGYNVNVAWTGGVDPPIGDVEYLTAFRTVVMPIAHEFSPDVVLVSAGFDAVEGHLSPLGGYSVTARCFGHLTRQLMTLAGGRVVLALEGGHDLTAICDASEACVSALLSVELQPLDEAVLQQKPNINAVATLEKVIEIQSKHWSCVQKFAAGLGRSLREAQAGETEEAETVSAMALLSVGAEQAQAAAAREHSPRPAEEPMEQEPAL

Substance	Runx2 deacetylation (immunoprecipitation with anti-acetyl-lysine antibody, Western blot with anti-myc antibody) (myc-labeled Runx2)	Smurf1-mediated degradation of Runx2 (Western blot of Runx2 level) (Runx2-P415R)	Smurf1-mediated degradation of Runx2 (Western blot of Runx2 level) (Runx2-del-415-418)
myc-labeled HDAC4	histone deacetylases 4 and 5 deacetylate Runx2		
Smurf1 (Smad ubiquitin regulatory factor 1)		Runx2-del-415-418 and Runx2-P415R were very stable, which means they were strongly resistant to Smurf1-mediated degradation	Runx2-del-415-418 and Runx2-P415R were very stable, which means they were strongly resistant to Smurf1-mediated degradation
myc-labeled HDAC5	histone deacetylases 4 and 5 deacetylate Runx2		
